Patent publication US20180208658A1 (EUREKA THERAPEUTICS, published 2018)
Changes are numbered by the printed parent chain.

Experiments:
[1] = biological target: T1, mouse AFP158 peptide/HLA-A*02:01 complex on T2 cells (human; mouse); assay: FACS, phage clone on peptide-loaded T2 cells
T1 construct: also called mouse AFP158-loaded T2 cells

[2] = biological target: T2, AFP158/HLA-A*02:01 complex presented on cells (human); assay: FACS of scFv phage on AFP158 peptide-loaded T2 cells, anti-M13 mAb and R-PE anti-mouse IgG
T2 construct: the cell line used is named under assay in each row; also called AFP158-loaded T2 cells; human AFP158-loaded T2 cells
Protocol: (§1) Specific and unique clones were further tested for their binding to HLA-A2/peptide complexes on live cell surfaces by flow cytometry (FACS analysis) using AFP158-loaded live T2 cells. T2 cells loaded with different peptides and β2M were first stained with purified scFv phage clones, followed by staining with a mouse anti-M13 mAb, and finally the R-PE conjugated horse anti-mouse IgG from Vector Labs. Each step of the staining was done between 30-60 minutes on ice and the cells were washed twice between staining.

[3] = biological target: T3, HLA-A*02:01 on T2 cells with β2M but without peptide loaded (human); assay: FACS of scFv phage on β2M-loaded T2 cells without peptide
T3 construct: control without added peptide; also called β2M-loaded T2 cells
Protocol: as §1

[4] = biological target: T4, hTERT540 peptide (…)/HLA-A*02:01 on T2 cells (human); assay: FACS of scFv phage on hTERT peptide-loaded T2 cells
T4 construct: control peptide-MHC; also called β2M/hTERT peptide-loaded T2 cells
Protocol: as §1

[5] = biological target: T5, recombinant AFP protein (UniProt P02771 19-609, limits assumed); assay: ELISA on AFP protein coated at 2 µg/mL
T5 construct: also called AFP recombinant protein
T5 sequence (looked up): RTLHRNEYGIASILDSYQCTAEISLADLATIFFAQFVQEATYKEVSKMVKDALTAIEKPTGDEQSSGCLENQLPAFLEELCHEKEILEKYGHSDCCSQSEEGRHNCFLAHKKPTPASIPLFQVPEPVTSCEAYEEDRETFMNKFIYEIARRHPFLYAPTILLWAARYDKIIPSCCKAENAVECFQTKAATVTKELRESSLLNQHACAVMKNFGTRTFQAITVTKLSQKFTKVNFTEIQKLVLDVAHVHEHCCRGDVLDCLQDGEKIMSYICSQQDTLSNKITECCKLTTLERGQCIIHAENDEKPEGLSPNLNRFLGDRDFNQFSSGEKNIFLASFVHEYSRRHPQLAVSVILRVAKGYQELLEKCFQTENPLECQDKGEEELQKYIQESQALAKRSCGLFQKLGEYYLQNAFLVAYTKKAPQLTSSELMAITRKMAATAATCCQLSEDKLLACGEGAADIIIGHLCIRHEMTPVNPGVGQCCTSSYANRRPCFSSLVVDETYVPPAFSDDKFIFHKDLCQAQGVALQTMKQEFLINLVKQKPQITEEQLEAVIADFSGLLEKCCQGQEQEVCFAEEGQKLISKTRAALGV
Protocol: Antibodies were tested at 3× serial dilution, starting from 100 ng/mL, for a total of 8 concentrations. Biotinlyated AFP158/A*02:01 MHC was coated onto streptavidin plates at 2 μg/mL, AFP protein was coated at 2 μg/mL and AFP158 peptide was coated at 40 ng/mL.

[6] = biological target: T1, mouse AFP158 peptide/HLA-A*02:01 …; assay: FACS of scFv phage on mouse AFP158 peptide-loaded T2 cells
[7] = biological target: T2, AFP158/HLA-A*02:01 complex presented on …; assay: FACS, phage clone on peptide-loaded T2 cells
[8] = biological target: T6, hAFP158 A8 peptide (…)/HLA-A*02:01 on T2 cells (human); assay: FACS, scFv phage clone on peptide-loaded T2 cells
T6 construct: also called Ala Position 8
Protocol: (§2) Antibody phage clones were then tested for binding to these peptide-loaded T2 cells by FACS analysis.

[9] = biological target: T7, hAFP158 A4 peptide (…)/HLA-A*02:01 on T2 cells (human); assay: FACS, scFv phage clone on peptide-loaded T2 cells
T7 construct: also called Ala Position 4
Protocol: as §2

[10] = biological target: T8, hAFP158 A5 peptide (…)/HLA-A*02:01 on T2 cells (human); assay: FACS, scFv phage clone on peptide-loaded T2 cells
T8 construct: also called Ala Position 5
Protocol: as §2

[11] = biological target: T9, hAFP158 A1 peptide (…)/HLA-A*02:01 on T2 cells (human); assay: FACS, scFv phage clone on peptide-loaded T2 cells
T9 construct: also called Ala Position 1
Protocol: as §2

[12] = biological target: T10, hAFP158 A6 peptide (…)/HLA-A*02:01 on T2 cells (human); assay: FACS, scFv phage clone on peptide-loaded T2 cells
T10 construct: also called Ala Position 6
Protocol: as §2

[13] = biological target: T2, AFP158/HLA-A*02:01 complex presented on …; assay: FACS, scFv phage clone on peptide-loaded T2 cells
Protocol: as §2

[14] = biological target: T11, hAFP158 A7 peptide (…)/HLA-A*02:01 on T2 cells (human); assay: FACS, scFv phage clone on peptide-loaded T2 cells
T11 construct: also called Ala Position 7
Protocol: as §2

[15] = biological target: T12, hAFP158 A3 peptide (…)/HLA-A*02:01 on T2 cells (human); assay: FACS, scFv phage clone on peptide-loaded T2 cells
T12 construct: also called Ala Position 3
Protocol: as §2

B1: AFP158/HLA-A*02:01-specific scFv phage clone #48 (scFv, V domains shown)
VH: EVQLVESGGGLVQPGRSLRLSCAASGFTFDDYAMHWVRQAPGKGLEWVSGISWNSGRIGYADSVKGRFTISRDNAKNSLYLQMNSLRAEDTAVYYCARADDYGAPYYYYGMDVWGQGTTVTVSS
VL: QSVLTQPPSVSGAPGQRVTISCTGSSSNIGAGYDVHWYQQLPGTAPKLLIYGNSNRPSGVPDRFSGSKSGTSASLAITGLQAEDEADYYCQSYDSSLSGSVFGTGTKVTVLG
- binding result [1]: binds
- binding result [2]: binds
- binding result [3]: no binding
- binding result [4]: no binding

B2: full-length AFP158 mouse chimeric IgG1 antibody 1402-79 (antibody, V domains shown)
VH: QMQLVQSGGGLVQPGRSLRLSCAASGFTFDDYAMHWVRQAPGKGLEWVSGISWNSGSIGYADSVKGRFTISRDNAKNSLYLQMNSLRAEDTALYYCAKDIHSGSYYGLLYYAMDVWGQGTTVTVSS
VL: QSVLTQPPSVSGAPGQRVTISCTGSSSNIGAGYDVHWYQQLPGTAPKLLIFGNSNRPSGVPDRFSGFKSGTSASLAITGLQAEDEADYFCQSYDSSLSGSGVFGTGTKVTVLG
notes: bivalent IgG
- binding result [5]: no binding (tested: 100 ng/mL)

B3: #50 (scFv, V domains shown, not shown: large carriers; small tags and cut ends)
VH: QVQLQESGPGLVKPSGTLSLTCAVSGGSISSSNWWSWVRQPPGKGLEWIGEIYHSGSTNYNPSLKSRVTISVDKSKNQFSLKLSSVTAADTAVYYCATGYGGYFDYWGQGTLVTVSS
VL: QSVLTQPPSVSVAPGKTARITCGGNNIGSKSVHWYQQKPGQAPVLVIYYDSDRPSGIPERFSGSNSGNTATLTISRVEAGDEADYYCQVWDSSSDHVVFGGGTKLTVL
notes: also called Clone 50; AFP158/HLA-A*02:01-specific scFv phage clone #50; copies: 1 + 1
- binding result [2]: binds
- binding result [3]: no binding
- binding result [4]: no binding

B4: full-length AFP158 mouse chimeric IgG1 antibody 1402-76 (antibody, V domains shown)
VH: EVQLVESGGGLVKPGGSLRLSCAASGFTFSNAWMSWVRQAPGKGLEWVGFIRSKAYGGTTEYAASVKGRFTISRDDSKSIAYLQMNNLKTEDTAVYYCARDGLYSSSWYDSDYWGQGTLVTVSS
VL: QSVVTQPPSVSAAPGQKVTISCSGSSSNIGNNYVSWYQQLPGTAPKLLIYDNNKRPSGIPDRFSGSKSGTSATLGITGLQTGDEADYYCGTWDGSLYTMLFGGGTKLTVLG
notes: bivalent IgG
- binding result [5]: no binding (tested: 100 ng/mL)

B5: full-length AFP158 mouse chimeric IgG1 antibody 1402-61 (antibody, V domains shown)
VH: EVQLVQSGAEVKKPGESLTISCKASGYSFPNYWITWVRQMSGGGLEWMGRIDPGDSYTTYNPSFQGHVTISIDKSTNTAYLHWNSLKASDTAMYYCARYYVSLVDIWGQGTLVTVSS
VL: QSVLTQPASVSGSPGQSITISCTGTSSDVGGYNYVSWYQQHPGKAPKLMIYDVNNRPSEVSNRFSGSKSGNTASLTISGLQAEDEADYYCSSYTTGSRAVFGGGTKLTVLG
notes: bivalent IgG
- binding result [5]: no binding (tested: 100 ng/mL)

B6: AFP158/HLA-A*02:01-specific scFv phage clone #33 (scFv, V domains shown)
VH: QVQLQQSGPGLVKPSQTLSLTCAISGDSVSSNSAAWNWIRQSPSRGLEWLGRTYYRSKWYNDYAVSVKSRITINPDTSKNQFSLQLNSVTPEDTAVYYCARGSYYSGRYDAWGQGTLVTVSS
VL: NFMLTQPHSVSESPGKTVTISCTRSSGSIASNYVQWYQQRPGSSPTTVIYEDNQRPSGVPDRFSGSIDSSSNSASLTISGLKTEDEADYYCQSYDSSTVVFGGGTKLTVLG
- binding result [1]: binds
- binding result [2]: binds
- binding result [3]: no binding
- binding result [4]: no binding

B7: #44 (scFv, V domains shown, not shown: large carriers; small tags and cut ends)
VH: QVQLVQSGAEVKKPGSSVKVSCKASGGTFSSYAISWVRQAPGQGLEWMGGIIPIFGTANYAQKFQGRVTITADESTSTAYMELSSLRSEDTAVYYCAREIRGYYYYYGMDVWGQGTTVTVSS
VL: SYELTQPPSVSVAPGKTARITCGGDNIGTKSVTWYQQRPGQAPMMVIYYDTVRPSGIPERLSGSNSGNTATLTITRVEAGDEADYYCQVWDSSSDHPVFGGGTKLTVL
notes: also called Clone 44; AFP158/HLA-A*02:01-specific scFv phage clone #44; copies: 1 + 1
- binding result [6]: no binding
- binding result [2]: binds
- binding result [3]: no binding
- binding result [4]: no binding

B8: AFP158/HLA-A*02:01-specific scFv phage clone #17 (scFv, V domains shown)
VH: EVQLVQSGAEVKKPGASVKVSCKASGYTFTSYGISWVRQAPGQGLEWMGWISAYNGNTNYAQKLQGRVTMTTDTSTSTAYMELRSLRSDDTAVYYCARYQDWWYLGQFDQWGQGTLVTVSS
VL: QSALTQPASVSGSPGQSITISCTATGSDVGVYYYVSWYQQHPGKAPKVMIYDVGNRPPGVSNRFSGSKSGNTASLTISGLQAEDEADYYCASYTNRNSLGYVFGTGTKVTVLG
- binding result [7]: binds
- binding result [1]: binds

B9: AFP158/HLA-A*02:01-specific scFv phage clone #17-13 (scFv, V domains shown)
VH: B8 VH with Y99F
VL: B8 VL with G54D
notes: also called AM1402-17-13
- FACS binding signal (name and unit not given) [8]: 43200
- FACS binding signal (name and unit not given) [9]: 50800
- FACS binding signal (name and unit not given) [10]: 1500
- FACS binding signal (name and unit not given) [11]: 55600
- FACS binding signal (name and unit not given) [12]: 28800
- FACS binding signal (name and unit not given) [13]: 83300
- FACS binding signal (name and unit not given) [14]: 572
- FACS binding signal (name and unit not given) [15]: 2910
